# Test results taken from article doi:10.1101/2023.06.26.546597 (bioRxiv, 2023).
# Target: the molecule itself
# Assay: crystal structure
protein,measurement,value
"YisK with C-terminal histidine tag (enzyme, B. subtilis 168, UniProt O06724 1-301, looked up) MKFATGELYNRMFVGLIIDDEKIMDLQKAEKKLFELETIPGSLIECIAEGDKFVAHARQLAEWAKKPNDELGSFMYSLSEVKLHAPIPKPSKNIICIGKNYRDHAIEMGSEADIPEHPMVFTKSPVTVTGHGDIVKSHEEVTSQLDYEGELAVVIGKSGTRISKEDAYDHVFGYTIVNDITARDLQKRHKQFFIGKSLDTTCPMGPVLVHKSSIQEPERLKVETRVNGELRQSGSASDMIFSIPELIETLSKGMTLEAGDIIATGTPSGVGKGFTPPKFLRSGDKIDITIDPIGTLSNQIG",binding result,binds
